Reference: the RNAGym collection of RNA variant scans (doi:10.7554/elife.80360)

B1: CPEB3 Ribozyme (parent)
chain: GGGGGCCACAGCAGAAGCGUUCACGUCGCGGCCCCUGUCAGAUUCUGGUGAAUCUGCGAAUUCUGCUGU

Variants of: B1
Assay: self-cleavage, relative activity (ratio to wild type); higher = more cleavage; co-transcriptional

Variant	self-cleavage
GGGGGCCAAAGCAGAAGCGUUCACGUCGCGGCCCCUGUCAGAUUCUUGUGAAUCUGCGAAUUCUGCUGU	1.05
GGGGGCCAAAGCAGAAGCGUUCACGUCGCGGCCCCUGUCAGAUUCUAGUGAAUCUGCGAAUUCUGCUGU	1.03
GGGGGCCAAAGCAGAAGCGUUCACGUCGCGGCACCUGUCAGAUUCUGGUGAAUCUGCGAAUUCUGCUGU	0.993
GGGGGCCAAAGCAGAAGCGUUCACGUCGCGGCUCCUGUCAGAUUCUGGUGAAUCUGCGAAUUCUGCUGU	1.03
GGGGGCCAAAGCAGAAGCGUUCACGUCGCGGCGCCUGUCAGAUUCUGGUGAAUCUGCGAAUUCUGCUGU	0.962
GGGGGCCAAAGCAGAAGCGUUCACGUCGCGGCCCCUGUCAGAUUCUGGUGAAUCAGCGAAUUCUGCUGU	0.981
GGGGGCCAAAGCAGAAGCGUUCACGUCGCGGCCCCUGUCACAUUCUGGUGAAUCUGCGAAUUCUGCUGU	0.906
GGGGGCCAAAGCAGAAGCGUUCACGUCGCGGCCCCUGUCAAAUUCUGGUGAAUCUGCGAAUUCUGCUGU	0.988
GGGGGCCAAAGCAGAAGCGAUCACGUCGCGGCCCCUGUCAGAUUCUGGUGAAUCUGCGAAUUCUGCUGU	0.0654
GGGGGCCAAAGCAGAAGCGGUCACGUCGCGGCCCCUGUCAGAUUCUGGUGAAUCUGCGAAUUCUGCUGU	0.19
GGGGGCCAAAGCAGAAGCGUUCACGUCGCGGCCCAUGUCAGAUUCUGGUGAAUCUGCGAAUUCUGCUGU	0.423
GGGGGCCAAAGCAGAAGCGUUCACGUCGCGGCCCGUGUCAGAUUCUGGUGAAUCUGCGAAUUCUGCUGU	0.72
GGGGGCCAAAGCAGAAGCGUUCACGUCGCGGCCCUUGUCAGAUUCUGGUGAAUCUGCGAAUUCUGCUGU	1.03
GGGGGCCAAAGCAGAAGCGUUCACAUCGCGGCCCCUGUCAGAUUCUGGUGAAUCUGCGAAUUCUGCUGU	0.264
GGGGGCCAAAGCAGAAGCGUUCACUUCGCGGCCCCUGUCAGAUUCUGGUGAAUCUGCGAAUUCUGCUGU	0.181
GGGGGCCAAAGCAGAAGCGUUCACGUCGCGGCCCCUGUCAGAUUUUGGUGAAUCUGCGAAUUCUGCUGU	1.01
GGGGGCCAAAGCAGAAGCGUUCACGUCGCGGCCCCUGUCAGAUUAUGGUGAAUCUGCGAAUUCUGCUGU	1.02
GGGGGCCAAAGCAGAAGCGUUCACGACGCGGCCCCUGUCAGAUUCUGGUGAAUCUGCGAAUUCUGCUGU	0.946
GGGGGCCAAAGCAGAAGCGUUCACGCCGCGGCCCCUGUCAGAUUCUGGUGAAUCUGCGAAUUCUGCUGU	0.983
GGGGGCCAAAGCAGAAGCGUUCACGUCGCGGCCCCUGUCAGAUACUGGUGAAUCUGCGAAUUCUGCUGU	0.998
GGGGGCCAAAGCAGAAGCGUUCACGUCGCGGCCCCUGUCAGAUCCUGGUGAAUCUGCGAAUUCUGCUGU	1.02
GGGGGCCAAAGCAGAAGCGUUCACGUCGCGGCCCCUGUCAGAUUCUGGUGAAUCUGCGAAUUUUGCUGU	0.985
GGGGGCCAAAGCAGAAGCGUUCACGUCGCCGCCCCUGUCAGAUUCUGGUGAAUCUGCGAAUUCUGCUGU	0.953
GGGGGCCAAAGCAGAAGCGUUCACGUCGCUGCCCCUGUCAGAUUCUGGUGAAUCUGCGAAUUCUGCUGU	0.846
GGGGGCCAAAGCAGAAGCGUUCACGUCGCAGCCCCUGUCAGAUUCUGGUGAAUCUGCGAAUUCUGCUGU	1.01
GGGGGCCAAAGCAGAAGCGUUCACGUCGCGGCCCCUGUCAGAUUCUGCUGAAUCUGCGAAUUCUGCUGU	1.02

Variant	self-cleavage
GGGGGCCAAAGCAGAAGCGUUCACGUCGCGGCCCCUGUCAGAUUCUGUUGAAUCUGCGAAUUCUGCUGU	1.03
GGGGGCCAAAGCAGAAGCGUUCACGUCUCGGCCCCUGUCAGAUUCUGGUGAAUCUGCGAAUUCUGCUGU	0.187
GGGGGCCAAAGCAGAAGCGUUCACGUCCCGGCCCCUGUCAGAUUCUGGUGAAUCUGCGAAUUCUGCUGU	0.196
GGGGGCCAAAGCAGAAGCGUUCACGUCGCGGCCCCUGUCAGAUUCUGGUGAAUCUGCGAACUCUGCUGU	0.863
GGGGGCCAAAGCAGAAGCGUUCACGUCGCGGCCCCUGUCAGAUUCUGGUGAAUCUGCGAAGUCUGCUGU	0.86
GGGGGCCAAAGCAGAAGCGUUCACGUCGCGGCCCCUGUCAGAUUCUGGUGAAUCUGCGAAAUCUGCUGU	0.988
GGGGGCCAAAGCAGAAGCGUUCACGUUGCGGCCCCUGUCAGAUUCUGGUGAAUCUGCGAAUUCUGCUGU	0.695
GGGGGCCAAAGCAGAAGCGUUCACGUCGCGGCCCCUGUCAGAUUCUGGUGAAUCUGCGAAUUCUGCUAU	1.04
GGGGGCCAAAGCAGAAGCGUUCACGUCGCGGCCCCUGUCAGAUUCUGGUGAAUCUGCGAAUUCUGCUUU	1.04
GGGGGCCAAAGCAGAAGCGUUCACGUCGCGGCCCCUGUCAGAUUCUGGUGAAUCUGCGAAUUCUGCUCU	1.05
GGGGGCCAAAGCAGAAGCGUGCACGUCGCGGCCCCUGUCAGAUUCUGGUGAAUCUGCGAAUUCUGCUGU	0.774
GGGGGCCAAAGCAGAAGCGUCCACGUCGCGGCCCCUGUCAGAUUCUGGUGAAUCUGCGAAUUCUGCUGU	0.985
GGGGGCCAAAGCACAAGCGUUCACGUCGCGGCCCCUGUCAGAUUCUGGUGAAUCUGCGAAUUCUGCUGU	0.513
GGGGGCCAAAGCAGAAGCGUUCACGUCGCGGCCCCUGUCAGAUUCAGGUGAAUCUGCGAAUUCUGCUGU	1.02
GGGGGCCAAAGCAGAAGCGUUCACGUCGCGGCCCCUGUCAGAUUCCGGUGAAUCUGCGAAUUCUGCUGU	0.996
GGGGGCCAAAGCAGAAGCGUUCACGUCGCGGCCCCUGUCAGAUUCUGGUGAAUCUGCAAAUUCUGCUGU	1.02
GGGGGCCAAAGCAGAAGCGUUCACGUCGCGGCCCCUGUCAGAUUCUGGUGAAUCUACGAAUUCUGCUGU	1.02
GGGGGCCAAAGCAGAAGCGUUCACGUCGCGGUCCCUGUCAGAUUCUGGUGAAUCUGCGAAUUCUGCUGU	1.01
GGGGGCCAAAGCAGAAGCGUUCACGUCGCGGCCCCCGUCAGAUUCUGGUGAAUCUGCGAAUUCUGCUGU	0.968
GGGGGCCAAAGCAGAAGCGUUCACGUCGCGGCCCCGGUCAGAUUCUGGUGAAUCUGCGAAUUCUGCUGU	0.244
GGGGGCCAAAGCAGAAGCGUUCACGUCGCGGCCACUGUCAGAUUCUGGUGAAUCUGCGAAUUCUGCUGU	1.01
GGGGGCCAAAGCAGAAGCGUUCACGUCGCGGCCUCUGUCAGAUUCUGGUGAAUCUGCGAAUUCUGCUGU	1.04
GGGGGCCAAAGCAGAAGCGUUCACGUCGCGGCCCCUCUCAGAUUCUGGUGAAUCUGCGAAUUCUGCUGU	0.242
GGGGGCCAAAGCAGAAGCGUUCACGUCGCGGCCCCUAUCAGAUUCUGGUGAAUCUGCGAAUUCUGCUGU	0.397
GGGGGCCAAAGCAGAAGCAUUCACGUCGCGGCCCCUGUCAGAUUCUGGUGAAUCUGCGAAUUCUGCUGU	0.129
GGGGGCCAAAGCAGAAGCUUUCACGUCGCGGCCCCUGUCAGAUUCUGGUGAAUCUGCGAAUUCUGCUGU	0.609

Variant	self-cleavage
GGGGGCCAAAGCAGAAGCCUUCACGUCGCGGCCCCUGUCAGAUUCUGGUGAAUCUGCGAAUUCUGCUGU	0.111
GGGGGCCAAAGCAGAAGCGUUCACGUCGCGGCCCCUGUCAGAUUCUGGCGAAUCUGCGAAUUCUGCUGU	0.989
GGGGGCCAAAGCAGAAGCGUUCACGUCGCGGCCCCUGUCAGAUUCUGGUGAAUCUGCGAAUUCUGAUGU	0.905
GGGGGCCAAAGCAGAAGCGUUCACGUCGCGGCCCCUGUCAGAUUCUGGUGAAUCUGCGAAUUCUGGUGU	0.923
GGGGGCCAAAGCAGAAGCGUUCACGUCGCGGCCCCUGCCAGAUUCUGGUGAAUCUGCGAAUUCUGCUGU	1.03
GGGGGCCAAAGCAGAAGCGUUCACGUCGCGGCCCCUGUCAGAUUCUGGUGAAUCUGCGAAUUCAGCUGU	0.94
GGGGGCCAAAGCAGAAGCGUUCACGUCGCGGCCCCUGUCAGAUUCUGGUGAACCUGCGAAUUCUGCUGU	0.997
GGGGGCCAAAGCAGAAGCGUUCACGUCGCGGCCCCUGUCAGAUUCUGGUGAAACUGCGAAUUCUGCUGU	1.03
GGGGGCCAAAGCAGAAGCGUUCACGUCGGGGCCCCUGUCAGAUUCUGGUGAAUCUGCGAAUUCUGCUGU	0.854
GGGGGCCAAAGCAGAAGCGUUCACGUCGCGGCCCCUGUCAGAUUCUGGUGAAUCUGCGAAUUCUCCUGU	0.627
GGGGGCCAAAGCAGAAGCGUUCACGUCGCGGCCCCUGUAAGAUUCUGGUGAAUCUGCGAAUUCUGCUGU	0.942
GGGGGCCAAAGCAGAAGCGUUCACGUCGCGGCCCCUGUGAGAUUCUGGUGAAUCUGCGAAUUCUGCUGU	1
GGGGGCCAAAGCAGAAGCGUUCACGUCGCGGCCCCUGUCAGAUUCUGGUGAAUCUGAGAAUUCUGCUGU	0.37
GGGGGCCAAAGCAGAAGCGUUCACGUCGCGGCCCCUGUCAGAUUCUGGUGAAUCUGUGAAUUCUGCUGU	0.423
GGGGGCCAAAGCAGAAGCGUUCACGUCGCGGCCCCUGUCAGAUUCUGGUGAAUCUGGGAAUUCUGCUGU	0.366
GGGGGCCAAAGCAGAAGCGUUCACGUCGCGGCCCCUGUCAGAUUCUGGUGAAUAUGCGAAUUCUGCUGU	1
GGGGGCCAAAGCAGAAGCGUUCACGUCGCGGCCCCUGUCAGAUUCUGGUGAAUGUGCGAAUUCUGCUGU	1.01
GGGGGCCAAAGCAGAAGCGUUCACGUCGCGGCCCCUGUCAGAUUCUGGUGAAUUUGCGAAUUCUGCUGU	1.03
GGGGGCCAAAUCAGAAGCGUUCACGUCGCGGCCCCUGUCAGAUUCUGGUGAAUCUGCGAAUUCUGCUGU	0.973
GGGGGCCAAAACAGAAGCGUUCACGUCGCGGCCCCUGUCAGAUUCUGGUGAAUCUGCGAAUUCUGCUGU	0.938
GGGGGCCAAACCAGAAGCGUUCACGUCGCGGCCCCUGUCAGAUUCUGGUGAAUCUGCGAAUUCUGCUGU	0.935
GGGGGCCAAAGCAGAAGCGUUCACGUCGCGGCCCCUGUCAGAGUCUGGUGAAUCUGCGAAUUCUGCUGU	0.876
GGGGGCCAAAGCAGAAGCGUUCACGUCGCGGCCCCUGUCAGAAUCUGGUGAAUCUGCGAAUUCUGCUGU	0.967
GGGGGCCAAAGCAGAAGCGUUCACGUCGCGGCCCCUGUCAGAUUCUGGUGAAUCUGCGAAUACUGCUGU	1.01
GGGGGCCAAAGCAGAAUCGUUCACGUCGCGGCCCCUGUCAGAUUCUGGUGAAUCUGCGAAUUCUGCUGU	0.622
GGGGGCCAAAGCAGAAACGUUCACGUCGCGGCCCCUGUCAGAUUCUGGUGAAUCUGCGAAUUCUGCUGU	0.707
